This is an account of results in patent publication US20230203142.

This series has as its target human NDPK-A (nucleoside diphosphate kinase A), full-length recombinant.

human NDPK-A (nucleoside diphosphate kinase A), full-length recombinant, sequence (chain, as listed by the source): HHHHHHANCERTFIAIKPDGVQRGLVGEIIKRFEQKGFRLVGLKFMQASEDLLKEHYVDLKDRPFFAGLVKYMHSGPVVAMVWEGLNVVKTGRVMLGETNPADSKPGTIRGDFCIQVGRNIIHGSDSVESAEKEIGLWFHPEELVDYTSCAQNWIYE

B1: human ADK (adenosine kinase), recombinant (protein)
chain: AAAEEEPKPKKLKVEAPQALRENILFGMGNPLLDISAVVDKDFLDKYSLKPNDQILAEDKHKELFDELVKKFKVEYHAGGSTQNSIKVAQWMIQQPHKAATFFGCIGIDKFGEILKRKAAEAHVDAHYYEQNEQPTGTCAACITGDNRSLIANLAAANCYKKEKHLDLEKNWMLVEKARVCYIAGFFLTVSPESVLKVAHHASENNRIFTLNLSAPFISQFYKESLMKVMPYVDILFGNETEAATFAREQGFETKDIKEIAKKTQALPKMNSKRQRIVIFTQGRDDTIMATESEVTAFAVLDQDQKEIIDTNGAGDAFVGGFLSQLVSDKPLTECIRAGHYAASIIIRRTGCTFPEKPDFH
Regarding B1, the “activity of recombinant NDPK to generate ADP (ADP-Glo)” value was “addition of recombinant ADK significantly reduced the activity of NDPK to generate ADP”.
